Here are results for 27 variants from the supplement of paper PMC7125110.

± gives the standard error. Fewer inactive variants are shown than the library holds.

Sequences and labels used below:
B1: glmS ribozyme (parent)
chain: AUAAAAGCGCCAGAACUACAGAAAUGUAGUUGACGAGGAGGAGGUUUAUCGAAUUUUCGGCGGAUGCCUCCAAA

What all share (conditions): with glucosamine-6-phosphate
Variants of B1 are the subject of data set [1]. Kind of data set: self-cleavage kobs at 40 uM GlcN6P; higher = faster cleavage; RNA array. In short, it runs like this: (§1)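 Glucosamine-6-phosphate, from 40 μM to 10 mM in HEPES/KCl/Mg(OAc)2 buffer, was flowed over sequenced MiSeq chips carrying barcoded ribozyme variants transcribed in situ by E. coli RNA polymerase. A hybridised Cy3 probe tracked the variants at 37 °C as tiles were imaged over ~14 h. kobs, kcat and KM were obtained by fitting normalised per-tile medians to exponential decays and then applying weighted Michaelis–Menten fits across concentrations.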

Variants of B1 are the subject of data set [2]. The experiment in a line: self-cleavage kobs at 10000 uM GlcN6P; higher = faster cleavage; RNA array. In short, it runs like this:
as §1

The variants in data set [3] derive from B1. The experiment in a line: self-cleavage kobs at 160 uM GlcN6P; higher = faster cleavage; RNA array. In a few lines: as §1
The variants in data set [4] derive from B1. The experiment in a line: self-cleavage kobs at 640 uM GlcN6P; higher = faster cleavage; RNA array. In short, it runs like this:
as §1

The variants in data set [5] derive from B1. Kind of data set: self-cleavage kobs at 2500 uM GlcN6P; higher = faster cleavage; RNA array. In short, it runs like this:
as §1

A15G G29A G63U: in the data set with glucosamine-6-phosphate [1], the “self-cleavage kobs at 40 uM GlcN6P” value was under 1e-05 s⁻¹. For the same variant, the “self-cleavage kobs at 10000 uM GlcN6P” value with glucosamine-6-phosphate [2] is under 1e-05 s⁻¹.

Consider G32C G66U, for which, in the data set with glucosamine-6-phosphate [1], the “self-cleavage kobs at 40 uM GlcN6P” value was under 1e-05 s⁻¹. For the same variant, the “self-cleavage kobs at 160 uM GlcN6P” value in the data set with glucosamine-6-phosphate [3] is under 1e-05 s⁻¹.

Consider G32A A48C, for which, in the data set with glucosamine-6-phosphate [1], the “self-cleavage kobs at 40 uM GlcN6P” value is under 1e-05 s⁻¹. For the same variant, the “self-cleavage kobs at 160 uM GlcN6P” value with glucosamine-6-phosphate [3] was under 1e-05 s⁻¹.

For the variant C16G C34A G38C U65C, the “self-cleavage kobs at 40 uM GlcN6P” value with glucosamine-6-phosphate [1] is under 1e-05 s⁻¹.

With U31C U45A C67A, the “self-cleavage kobs at 160 uM GlcN6P” value in the data set with glucosamine-6-phosphate [3] is 0.000102 ± 3e-05 s⁻¹. The “self-cleavage kobs at 640 uM GlcN6P” value with glucosamine-6-phosphate [4] was 0.000203 ± 4.8e-05 s⁻¹. Also, the “self-cleavage kobs at 2500 uM GlcN6P” value with glucosamine-6-phosphate [5] amounted to 0.000723 ± 0.00023 s⁻¹.

On to U31C G51U, for which the “self-cleavage kobs at 40 uM GlcN6P” value with glucosamine-6-phosphate [1] is under 1e-05 s⁻¹. Also, the “self-cleavage kobs at 10000 uM GlcN6P” value with glucosamine-6-phosphate [2] is under 1e-05 s⁻¹.

As to C10A C11U A33C U49G C67G, the “self-cleavage kobs at 40 uM GlcN6P” value with glucosamine-6-phosphate [1] was under 1e-05 s⁻¹. The “self-cleavage kobs at 2500 uM GlcN6P” value with glucosamine-6-phosphate [5] is under 1e-05 s⁻¹.

On to C50G G63A C68A U69C, for which, in the data set with glucosamine-6-phosphate [1], the “self-cleavage kobs at 40 uM GlcN6P” value worked out at 0.000106 ± 2.3e-05 s⁻¹. Moreover, the “self-cleavage kobs at 10000 uM GlcN6P” value in the data set with glucosamine-6-phosphate [2] came to 0.000147 ± 2.8e-05 s⁻¹.

For C16G G62U C67G, in the data set with glucosamine-6-phosphate [1], the “self-cleavage kobs at 40 uM GlcN6P” value was under 1e-05 s⁻¹.

Turning to C34U C58G C68U, the “self-cleavage kobs at 40 uM GlcN6P” value with glucosamine-6-phosphate [1] turned out to be 0.000265 ± 9.2e-05 s⁻¹. Also, in the data set with glucosamine-6-phosphate [2], the “self-cleavage kobs at 10000 uM GlcN6P” value is 0.000425 ± 0.00014 s⁻¹.

Regarding C34G U65C, the “self-cleavage kobs at 40 uM GlcN6P” value with glucosamine-6-phosphate [1] is under 1e-05 s⁻¹. Further, the “self-cleavage kobs at 640 uM GlcN6P” value with glucosamine-6-phosphate [4] was under 1e-05 s⁻¹. Further, in the data set with glucosamine-6-phosphate [2], the “self-cleavage kobs at 10000 uM GlcN6P” value was under 1e-05 s⁻¹.

On to A36U U49C, for which, in the data set with glucosamine-6-phosphate [1], the “self-cleavage kobs at 40 uM GlcN6P” value was under 1e-05 s⁻¹. Moreover, the “self-cleavage kobs at 160 uM GlcN6P” value in the data set with glucosamine-6-phosphate [3] was under 1e-05 s⁻¹. For the same variant, the “self-cleavage kobs at 640 uM GlcN6P” value with glucosamine-6-phosphate [4] is under 1e-05 s⁻¹. Further, the “self-cleavage kobs at 10000 uM GlcN6P” value with glucosamine-6-phosphate [2] is under 1e-05 s⁻¹.

Take C68U C70A C71U: the “self-cleavage kobs at 40 uM GlcN6P” value in the data set with glucosamine-6-phosphate [1] was under 1e-05 s⁻¹. For the same variant, the “self-cleavage kobs at 2500 uM GlcN6P” value in the data set with glucosamine-6-phosphate [5] is under 1e-05 s⁻¹. Further, the “self-cleavage kobs at 10000 uM GlcN6P” value with glucosamine-6-phosphate [2] is under 1e-05 s⁻¹.

Regarding A6G C58A, in the data set with glucosamine-6-phosphate [1], the “self-cleavage kobs at 40 uM GlcN6P” value was under 1e-05 s⁻¹. The “self-cleavage kobs at 160 uM GlcN6P” value with glucosamine-6-phosphate [3] is under 1e-05 s⁻¹. Moreover, the “self-cleavage kobs at 640 uM GlcN6P” value with glucosamine-6-phosphate [4] is under 1e-05 s⁻¹. In the data set with glucosamine-6-phosphate [5], the “self-cleavage kobs at 2500 uM GlcN6P” value was under 1e-05 s⁻¹.

For U45A C70U, the “self-cleavage kobs at 40 uM GlcN6P” value in the data set with glucosamine-6-phosphate [1] was found to be 0.00112 ± 0.00012 s⁻¹. Moreover, the “self-cleavage kobs at 160 uM GlcN6P” value with glucosamine-6-phosphate [3] was 0.00187 ± 0.00068 s⁻¹. For the same variant, in the data set with glucosamine-6-phosphate [4], the “self-cleavage kobs at 640 uM GlcN6P” value amounted to 0.00199 ± 0.00047 s⁻¹. Moreover, the “self-cleavage kobs at 2500 uM GlcN6P” value with glucosamine-6-phosphate [5] was found to be 0.0203 ± 0.0092 s⁻¹. Besides, in the data set with glucosamine-6-phosphate [2], the “self-cleavage kobs at 10000 uM GlcN6P” value amounted to 0.0102 ± 0.0018 s⁻¹.

For G35A U49A, the “self-cleavage kobs at 160 uM GlcN6P” value with glucosamine-6-phosphate [3] is under 1e-05 s⁻¹. The “self-cleavage kobs at 640 uM GlcN6P” value with glucosamine-6-phosphate [4] is under 1e-05 s⁻¹. In the data set with glucosamine-6-phosphate [2], the “self-cleavage kobs at 10000 uM GlcN6P” value was under 1e-05 s⁻¹.

As to A14G G44C C61A C68G, in the data set with glucosamine-6-phosphate [1], the “self-cleavage kobs at 40 uM GlcN6P” value is under 1e-05 s⁻¹.

Consider C8A A12U A39G, for which the “self-cleavage kobs at 40 uM GlcN6P” value in the data set with glucosamine-6-phosphate [1] was under 1e-05 s⁻¹. Further, in the data set with glucosamine-6-phosphate [4], the “self-cleavage kobs at 640 uM GlcN6P” value is under 1e-05 s⁻¹. For the same variant, the “self-cleavage kobs at 10000 uM GlcN6P” value with glucosamine-6-phosphate [2] is under 1e-05 s⁻¹.

Consider G41A U49C U56A, for which the “self-cleavage kobs at 40 uM GlcN6P” value with glucosamine-6-phosphate [1] was under 1e-05 s⁻¹.

U30C C50A A53G U69C C70G: in the data set with glucosamine-6-phosphate [1], the “self-cleavage kobs at 40 uM GlcN6P” value came to 5.5e-05 ± 1.9e-05 s⁻¹.

Regarding A52G C61G, in the data set with glucosamine-6-phosphate [1], the “self-cleavage kobs at 40 uM GlcN6P” value was under 1e-05 s⁻¹. Besides, the “self-cleavage kobs at 10000 uM GlcN6P” value with glucosamine-6-phosphate [2] was under 1e-05 s⁻¹.

Take A6G U45A G60C: the “self-cleavage kobs at 40 uM GlcN6P” value with glucosamine-6-phosphate [1] was under 1e-05 s⁻¹. For the same variant, the “self-cleavage kobs at 10000 uM GlcN6P” value with glucosamine-6-phosphate [2] is under 1e-05 s⁻¹.

G43U G63U: the “self-cleavage kobs at 40 uM GlcN6P” value in the data set with glucosamine-6-phosphate [1] was under 1e-05 s⁻¹. In the data set with glucosamine-6-phosphate [3], the “self-cleavage kobs at 160 uM GlcN6P” value was under 1e-05 s⁻¹. Moreover, the “self-cleavage kobs at 2500 uM GlcN6P” value with glucosamine-6-phosphate [5] was under 1e-05 s⁻¹. In the data set with glucosamine-6-phosphate [2], the “self-cleavage kobs at 10000 uM GlcN6P” value is under 1e-05 s⁻¹.

As to A52C C71G, the “self-cleavage kobs at 40 uM GlcN6P” value with glucosamine-6-phosphate [1] was under 1e-05 s⁻¹. Besides, the “self-cleavage kobs at 640 uM GlcN6P” value in the data set with glucosamine-6-phosphate [4] was under 1e-05 s⁻¹. Further, the “self-cleavage kobs at 2500 uM GlcN6P” value in the data set with glucosamine-6-phosphate [5] is under 1e-05 s⁻¹.

With G51C G59U, the “self-cleavage kobs at 40 uM GlcN6P” value with glucosamine-6-phosphate [1] is under 1e-05 s⁻¹. Also, in the data set with glucosamine-6-phosphate [3], the “self-cleavage kobs at 160 uM GlcN6P” value is under 1e-05 s⁻¹. Besides, the “self-cleavage kobs at 640 uM GlcN6P” value in the data set with glucosamine-6-phosphate [4] is under 1e-05 s⁻¹.

Turning to G29A A36U A39G G41U C67G, in the data set with glucosamine-6-phosphate [1], the “self-cleavage kobs at 40 uM GlcN6P” value is under 1e-05 s⁻¹. In addition, the “self-cleavage kobs at 2500 uM GlcN6P” value with glucosamine-6-phosphate [5] was under 1e-05 s⁻¹.

With A12C U31G U47A, the “self-cleavage kobs at 160 uM GlcN6P” value with glucosamine-6-phosphate [3] was determined as 0.000155 ± 5.6e-05 s⁻¹. The “self-cleavage kobs at 640 uM GlcN6P” value with glucosamine-6-phosphate [4] is 0.000707 ± 0.00032 s⁻¹.
